Experiments:
[1] = tested on: C7.GCG (C7) none; finger-3 helix RSDERKR (SEQ 50) (synthetic); assay: EMSA; conditions: CITED Segal 1999, exact target oligo not stated; cited from earlier work
[2] = tested on: C7.GAT C7 finger-3 helix RSDERKR replaced by TSGNLVR (SEQ 51) (synthetic); assay: EMSA; conditions: [none]; gel mobility shift; exact target oligo not stated

| Sequence | Kd [1] [nM] | Kd [2] [nM] |
| --- | --- | --- |
| GCGTGGGCG (double strand) [C7 target, finger-2 subsite TGG] | 0.5 | – |
| GATTGGGCG (double strand) [C7.GAT target, finger-2 subsite TGG] | – | 400 |

Source: patent US20060078880
